Our source for the K half values is PMC7466809.

The test system of this series is GST-EZH2. Put plainly: Alpha assay (saturation). To be noted: RNA-protein binding buffer: 50 mM Tris-HCl pH 7.9, 10 mM beta-ME, 10% glycerol, 5 mM MgCl2, 100 mM KCl, 0.1% NP-40; EMSA 1 h at RT, 1 ug His-EZH2, 0.035 pmol …. In general terms: Mobility shift assays separate free from complexed probe on a gel.

In the case of LINC00301 (Alpha assay), the K half turned out to be 228 nM.
